The text below walks through data of paper PMC8989681, “Functional and structural deficiencies of Gemin5 variants associated with neurological disorders” (Life Science Alliance, 2022).

Data set [1] has as its target 80S ribosomes, P05388;P63244. Briefly: sedimentation with native ribosomes (80S fraction), immunoblot quantification. The settings on record: chain shown with the change; HEK293 cells expressing Xpress-tagged G5845-1508 proteins; parent: est. 1.0; read off a plot.
Data set [2] deals with the molecule itself. Briefly: SEC-MALS; 250 ul of purified TPR-like domain at 1-3 mg/ml on Superdex 200 10/300; 20 mM Tris-HCl pH 6.8, 0.2 M NaCl, 5% glycerol, 1 mM DTT; 0.5 ml/min.

B1: Xpress-G5_(845-1508)-WT, Q8TEQ6 D1019E (protein)
chain: ARSLLPLSTSLDHRSKEELHQDCLVLATAKHSRELNEDVSADVEERFHLGLFTDRATLYRMIDIEGKGHLENGHPELFHQLMLWKGDLKGVLQTAAERGELTDNLVAMAPAAGYHVWLWAVEAFAKQLCFQDQYVKAASHLLSIHKVYEAVELLKSNHFYREAIAIAKARLRPEEPVLKDLYLSWGTVLERDGHYAVAAKCYLGATCAYDAAKVLAKKGDAASLRTAAELAAIVGEDELSASLALRCAQELLLANNWVGAQEALQLHESLQGQRLVFCLLELLSRHLEEKQLSEGKSSSSYHTWNTGTEGPFVERVTAVWKSIFSLDTPEQYQEAFQKLQNIKYPSATNNTPAKQLLLHICHDLTLAVLSQQMASWDEAVQALLRAVVRSYDSGSFTIMQEVYSAFLPDGCDHLRDKLGDHQSPATPAFKSLEAFFLYGRLYEFWWSLSRPCPNSSVWVRAGHRTLSVEPSQQLDTASTEETDPETSQPEPNRPSELDLRLTEEGERMLSTFKELFSEKHASLQNSQRTVAEVQETLAEMIRQHQKSQLCKSTANGPDKNEPEVEAEQPLCSSQSQCKEEKNEPLSLPELTKRLTEANQRMAKFPESIKAWPFPDVLECCLVLLLIRSHFPGCLAQEMQQQAQELLQKYGNTKTYRRHCQTFCM
B1: the other: G5845-1508 intensity 80S/S30 in data set [1] was 0.46.

B2: Xpress-G5_(845-1508)-WT, Q8TEQ6 A951E (protein)
chain: ARSLLPLSTSLDHRSKEELHQDCLVLATAKHSRELNEDVSADVEERFHLGLFTDRATLYRMIDIEGKGHLENGHPELFHQLMLWKGDLKGVLQTAAERGELTDNLVEMAPAAGYHVWLWAVEAFAKQLCFQDQYVKAASHLLSIHKVYEAVELLKSNHFYREAIAIAKARLRPEDPVLKDLYLSWGTVLERDGHYAVAAKCYLGATCAYDAAKVLAKKGDAASLRTAAELAAIVGEDELSASLALRCAQELLLANNWVGAQEALQLHESLQGQRLVFCLLELLSRHLEEKQLSEGKSSSSYHTWNTGTEGPFVERVTAVWKSIFSLDTPEQYQEAFQKLQNIKYPSATNNTPAKQLLLHICHDLTLAVLSQQMASWDEAVQALLRAVVRSYDSGSFTIMQEVYSAFLPDGCDHLRDKLGDHQSPATPAFKSLEAFFLYGRLYEFWWSLSRPCPNSSVWVRAGHRTLSVEPSQQLDTASTEETDPETSQPEPNRPSELDLRLTEEGERMLSTFKELFSEKHASLQNSQRTVAEVQETLAEMIRQHQKSQLCKSTANGPDKNEPEVEAEQPLCSSQSQCKEEKNEPLSLPELTKRLTEANQRMAKFPESIKAWPFPDVLECCLVLLLIRSHFPGCLAQEMQQQAQELLQKYGNTKTYRRHCQTFCM
For B2, the other: G5845-1508 intensity 80S/S30 in data set [1] is 0.48.

B3: Xpress-G5_(845-1508)-WT, Q8TEQ6 R1016C (protein)
chain: ARSLLPLSTSLDHRSKEELHQDCLVLATAKHSRELNEDVSADVEERFHLGLFTDRATLYRMIDIEGKGHLENGHPELFHQLMLWKGDLKGVLQTAAERGELTDNLVAMAPAAGYHVWLWAVEAFAKQLCFQDQYVKAASHLLSIHKVYEAVELLKSNHFYREAIAIAKARLCPEDPVLKDLYLSWGTVLERDGHYAVAAKCYLGATCAYDAAKVLAKKGDAASLRTAAELAAIVGEDELSASLALRCAQELLLANNWVGAQEALQLHESLQGQRLVFCLLELLSRHLEEKQLSEGKSSSSYHTWNTGTEGPFVERVTAVWKSIFSLDTPEQYQEAFQKLQNIKYPSATNNTPAKQLLLHICHDLTLAVLSQQMASWDEAVQALLRAVVRSYDSGSFTIMQEVYSAFLPDGCDHLRDKLGDHQSPATPAFKSLEAFFLYGRLYEFWWSLSRPCPNSSVWVRAGHRTLSVEPSQQLDTASTEETDPETSQPEPNRPSELDLRLTEEGERMLSTFKELFSEKHASLQNSQRTVAEVQETLAEMIRQHQKSQLCKSTANGPDKNEPEVEAEQPLCSSQSQCKEEKNEPLSLPELTKRLTEANQRMAKFPESIKAWPFPDVLECCLVLLLIRSHFPGCLAQEMQQQAQELLQKYGNTKTYRRHCQTFCM
Consider B3, for which, in data set [1], the other: G5845-1508 intensity 80S/S30 was found to be 0.51.

B4: Gemin5 TPR-like dimerization domain R1016C (domain or fragment, human, UniProt Q8TEQ6 845-1097, looked up)
chain: ARSLLPLSTSLDHRSKEELHQDCLVLATAKHSRELNEDVSADVEERFHLGLFTDRATLYRMIDIEGKGHLENGHPELFHQLMLWKGDLKGVLQTAAERGELTDNLVAMAPAAGYHVWLWAVEAFAKQLCFQDQYVKAASHLLSIHKVYEAVELLKSNHFYREAIAIAKARLCPEDPVLKDLYLSWGTVLERDGHYAVAAKCYLGATCAYDAAKVLAKKGDAASLRTAAELAAIVGEDELSASLALRCAQELLL
notes: Tag cut by PreScission protease; also called TPR-like R1016C; source: E. coli BL21-Rosetta (DE3) pLysS, purified (HisTrap, tag cleavage, SEC in 0.2 M NaCl); not shown: His6, N-terminal, cleaved; MBP, N-terminal, cleaved
With B4, the “stoichiometry N” value in data set [2] was found to be 2.

B5: Gemin5 TPR-like dimerization domain D1019E (domain or fragment, human, UniProt Q8TEQ6 845-1097, looked up)
chain: ARSLLPLSTSLDHRSKEELHQDCLVLATAKHSRELNEDVSADVEERFHLGLFTDRATLYRMIDIEGKGHLENGHPELFHQLMLWKGDLKGVLQTAAERGELTDNLVAMAPAAGYHVWLWAVEAFAKQLCFQDQYVKAASHLLSIHKVYEAVELLKSNHFYREAIAIAKARLRPEEPVLKDLYLSWGTVLERDGHYAVAAKCYLGATCAYDAAKVLAKKGDAASLRTAAELAAIVGEDELSASLALRCAQELLL
notes: Tag cut by PreScission protease; also called TPR-like D1019E; source: E. coli BL21-Rosetta (DE3) pLysS, purified (HisTrap, tag cleavage, SEC in 0.2 M NaCl); not shown: His6, N-terminal, cleaved; MBP, N-terminal, cleaved
Consider B5, for which the “stoichiometry N” value in data set [2] was determined as 2.
